From US8512970B2, “Rapid bioluminescence detection assay” (The Secretary of State for Health, priority 2009, dated 2013)

B1: T. maritima: Adenylate kinase (AK) from Thermotoga maritima, monomer; reporter kinase (protein, UniProt Q9X1I8 1-220, looked up)
Adenylate kinase: MMAYLVFLGPPGAGKGTYAKRLQEITGIPHISTGDIFRDIVKKENDELGKKIKEIMERGELVPDELVNEVVKRRLSEKDCERGFILDGYPRTVAQAEFLDGFLKTQNKELTAAVLFEVPEEVVVQRLTARRICPKCGRIYNLISLPPKEDELCDDCKVKLVQREDDKEETVRHRYKVYLEKTQPVIDYYDKKGILKRVDGTIGIDNVIAEVLKIIGWSDK
B2: S. acidocaldarius: Adenylate kinase (AK) from Sulfolobus acidocaldarius, trimer; reporter kinase (protein, UniProt P35028 1-194, looked up)
Adenylate kinase: MKIGIVTGIPGVGKSTVLAKVKEILDNQGINNKIINYGDFMLATALKLGYAKDRDEMRKLSVEKQKKLQIDAAKGIAEEARAGGEGYLFIDTHAVIRTPSGYLPGLPSYVITEINPSVIFLLEADPKIILSRQKRDTTRNRNDYSDESVILETINFARYAATASAVLAGSTVKVIVNVEGDPSIAANEIIRSMK

Experiment: Isoelectric point of reporter kinases (Table 2)
Assay type: physicochemical

Molecule	pI Actual (if known)
B1	~6.7
B2	> 10
